T1: human Activin RIB (ALK-4)/Fc (human, UniProt P36896 24-126)
T1 construct: Bought counter-target
T1 sequence (looked up): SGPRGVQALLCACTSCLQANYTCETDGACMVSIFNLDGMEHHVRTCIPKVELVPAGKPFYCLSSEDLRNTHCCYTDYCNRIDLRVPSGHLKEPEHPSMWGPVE

T2: mouse TGF-βRI (ALK-5)/Fc (mouse, UniProt Q64729 30-125, limits assumed)
T2 construct: Bought counter-target
T2 sequence (looked up): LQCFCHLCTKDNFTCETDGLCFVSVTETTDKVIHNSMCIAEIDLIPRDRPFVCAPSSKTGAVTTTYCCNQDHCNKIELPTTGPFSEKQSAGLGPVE

B1: GDF-11 (ligand, UniProt O95390 299-407, looked up)
chain: NLGLDCDEHSSESRCCRYPLTVDFEAFGWDWIIAPKRYKANYCSGQCEYMFMQKYPHTHLVQQANPRGSAGPCCTPTKMSPINMLYFNDKQQIIYGKIPGMVVDRCGCS
B2: Activin A (ligand, UniProt P08476 311-426, looked up)
chain: GLECDGKVNICCKKQFFVSFKDIGWNDWIIAPSGYHANYCEGECPSHIAGTSGSSLSFHSTVINHYRMRGHSPFANLKSCCVPTKLRPMSMLYYDDGQNIIKKDIQNMIVEECGCS
B3: MOR07079 Fab (Fab, V domains shown)
VH: QVQLVQSGAEVKKPGASVKVSCKASGYTFTSSYINWVRQAPGQGLEWMGTINPVSGNTSYAQKFQGRVTMTRDTSISTAYMELSSLRSEDTAVYYCARGGWFDYWGQGTLVTVSS
VL: DIALTQPASVSGSPGQSITISCTGTSSDVGSYNYVNWYQQHPGKAPKLMIYGVSKRPSGVSNRFSGSKSGNTASLTISGLQAEDEADYYCQAWTSKMAGVFGGGTKLTVL
notes: Parental HuCAL GOLD Fab (Fab-FH format from pMORPH X9_FH vector); also called MOR7079; Fab-FH

Legend:
[1] = molecular target: endogenous human ActRIIB on cells (human) (UniProt Q13705); test: cell-based or functional assay
Sequence of endogenous human ActRIIB on cells (human) (Q13705 19-512 E459A limits assumed): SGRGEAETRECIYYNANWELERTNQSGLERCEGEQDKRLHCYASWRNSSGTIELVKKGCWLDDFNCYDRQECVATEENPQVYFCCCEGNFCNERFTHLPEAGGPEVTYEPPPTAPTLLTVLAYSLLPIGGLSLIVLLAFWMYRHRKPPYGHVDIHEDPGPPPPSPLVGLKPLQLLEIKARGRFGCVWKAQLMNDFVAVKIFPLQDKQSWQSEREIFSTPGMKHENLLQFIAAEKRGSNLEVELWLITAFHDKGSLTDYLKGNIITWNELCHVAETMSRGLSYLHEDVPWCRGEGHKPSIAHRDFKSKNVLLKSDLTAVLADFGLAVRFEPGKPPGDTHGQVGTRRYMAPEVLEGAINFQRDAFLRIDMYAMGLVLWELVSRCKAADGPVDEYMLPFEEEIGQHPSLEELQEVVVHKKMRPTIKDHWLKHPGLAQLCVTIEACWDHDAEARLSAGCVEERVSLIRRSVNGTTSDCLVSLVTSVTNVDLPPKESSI

[2] = molecular target: T1, human Activin RIB (ALK-4)/Fc; test: specificity ELISA on coated recombinant protein
Procedure: (§1) The specificity of anti-ActRIIB Fab antibodies to human ActRIIB and crossreactivity to human ActRIIA and mouse ActRIIB is evaluated in an ELISA setting. Additionally, binding to related receptors (counter-targets: human TGF-βRII/Fc (R&D systems), mouse TGF-βRI (ALK-5)/Fc (R&D systems), human Activin RIB (ALK-4)/Fc (R&D systems)) is determined. For this 5 μg/ml (if not stated otherwise) of the recombinant proteins diluted in PBS are added to a black 96-well flat-bottom MaxiSorp™ plate and incubated over night at 4° C. for coating.
(§2) The next morning, the plates are washed with TBST and blocked with MTBST. After washing the plates several times, 5 μg/ml anti-ActRIIB Fab are added and incubated for 2.5 hrs. Subsequently antigen bound Fabs are detected by incubation with alkaline phosphatase conjugated goat-anti-human IgG Fab-specific, followed by addition of AttoPhos fluorescence substrate.

mouse TGF-βRI (ALK-5)/Fc = molecular target: T2, mouse TGF-βRI (ALK-5)/Fc; test: specificity ELISA on coated recombinant protein
Procedure: as §1, §2

human TGF-βRII/Fc = molecular target: T3, human TGF-βRII/Fc (human, UniProt P37173 24-159); test: specificity ELISA on coated recombinant protein
T3 construct: Bought counter-target
T3 sequence (P37173 24-159 limits assumed): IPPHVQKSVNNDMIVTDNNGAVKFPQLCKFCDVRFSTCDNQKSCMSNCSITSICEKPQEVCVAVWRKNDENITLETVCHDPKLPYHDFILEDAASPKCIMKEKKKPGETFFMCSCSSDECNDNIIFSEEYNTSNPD
Procedure: as §1, §2

Binder | Emax of ligand-induced inhibition of skeletal muscle differentiation in the presence of MOR08159 (10 µg/ml) [1] [% control] | Emax of ligand-induced inhibition of skeletal muscle differentiation in the presence of MOR08213 (10 µg/ml) [1] [% control] | Emax of ligand-induced inhibition of skeletal muscle differentiation, no Ab [1] [% control] | IC50 of ligand-induced inhibition of skeletal muscle differentiation in the presence of MOR08159 (10 µg/ml) [1] [µg/mL] | IC50 of ligand-induced inhibition of skeletal muscle differentiation in the presence of MOR08213 (10 µg/ml) [1] [µg/mL] | IC50 of ligand-induced inhibition of skeletal muscle differentiation, no Ab [1] [µg/mL] | binding result [2] | binding result (mouse TGF-βRI (ALK-5)/Fc) | binding result (human TGF-βRII/Fc)
B1 | 22.1 | 27.1 | 23.2 | 0.0133 | 0.012 | 0.007 |  |  | 
B2 | 61.9 | 57.2 | 37.1 | 0.0347 | 0.0419 | 0.0147 |  |  | 
B3 |  |  |  |  |  |  | no binding (tested: 5 µg/ml Fab) | no binding (tested: 5 µg/ml Fab) | no binding (tested: 5 µg/ml Fab)
